For test [1], the target named is biotinylated human FcRn (hFcRn; p51 subunit residues 24-297 with C-terminal Avi-tag, β2-m residues 21-119) (human) (UniProt P55899). Nature of the test: Biacore SPR, human FcRn, pH 7.4, steady state.
Test [2] shares this target. Nature of the test: Biacore SPR, Biotin CAPture of biotinylated human FcRn, pH 6.0.
Test [3] shares this target. Nature of the test: Biacore SPR, human FcRn, pH 6.0 (column 'Affinity, pH 6.0 (nM)').
For test [4] the target is unchanged. Nature of the test: Biacore SPR, Biotin CAPture, pH 7.4, 1000 nM antibody, steady state.
Test [5] concerns the target biotinylated hFcRn (human) (UniProt P55899). Nature of the test: SPR Biacore, pH 6.0.
Target sequence in this assay (P55899 24-297 limits assumed, form in doubt, chain 1 of 2): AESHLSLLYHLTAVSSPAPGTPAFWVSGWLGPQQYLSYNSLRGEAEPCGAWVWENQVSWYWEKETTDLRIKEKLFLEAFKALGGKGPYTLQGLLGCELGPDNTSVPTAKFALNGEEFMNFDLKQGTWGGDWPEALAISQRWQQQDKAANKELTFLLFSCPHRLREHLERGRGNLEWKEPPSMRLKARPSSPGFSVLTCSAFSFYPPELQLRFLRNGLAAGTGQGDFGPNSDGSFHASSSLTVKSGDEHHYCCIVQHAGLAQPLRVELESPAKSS
Target sequence in this assay (P61769 21-119 limits assumed, form in doubt, chain 2 of 2, further chain): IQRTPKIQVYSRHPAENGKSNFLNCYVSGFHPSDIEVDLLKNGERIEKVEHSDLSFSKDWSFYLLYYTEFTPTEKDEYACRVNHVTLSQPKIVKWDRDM
Test [6] concerns the target rFcRn (rat) (UniProt P13599). Nature of the test: SPR Biacore, pH 6.0.
Target sequence in this assay (P13599 23-298 limits assumed, form in doubt, chain 1 of 2): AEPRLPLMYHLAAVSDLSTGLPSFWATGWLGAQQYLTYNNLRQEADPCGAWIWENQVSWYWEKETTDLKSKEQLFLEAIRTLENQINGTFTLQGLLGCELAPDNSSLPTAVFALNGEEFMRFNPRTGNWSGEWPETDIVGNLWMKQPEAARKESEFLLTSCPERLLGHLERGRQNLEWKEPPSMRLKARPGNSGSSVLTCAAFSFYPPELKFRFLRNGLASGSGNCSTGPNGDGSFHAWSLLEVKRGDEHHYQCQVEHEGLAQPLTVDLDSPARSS
Target sequence in this assay (P07151 21-119 limits assumed, form in doubt, chain 2 of 2, further chain): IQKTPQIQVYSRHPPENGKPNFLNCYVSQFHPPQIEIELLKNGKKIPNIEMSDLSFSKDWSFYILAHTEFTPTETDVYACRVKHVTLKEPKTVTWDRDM
For test [7], the target named is biotinylated hFcRn (human) (UniProt P55899). Nature of the test: SPR Biacore, pH 7.4.
Target sequence in this assay (P55899 24-297 limits assumed, form in doubt, chain 1 of 2): as the sequence (P55899 24-297 limits assumed, form in doubt, chain 1 of 2) above
Target sequence in this assay (P61769 21-119 limits assumed, form in doubt, chain 2 of 2, further chain): as the sequence (P61769 21-119 limits assumed, form in doubt, chain 2 of 2, further chain) above
Test [8] has as its target rFcRn (rat) (UniProt P13599). Nature of the test: SPR Biacore, pH 7.4.
Target sequence in this assay (P13599 23-298 limits assumed, form in doubt, chain 1 of 2): as the sequence (P13599 23-298 limits assumed, form in doubt, chain 1 of 2) above
Target sequence in this assay (P07151 21-119 limits assumed, form in doubt, chain 2 of 2, further chain): as the sequence (P07151 21-119 limits assumed, form in doubt, chain 2 of 2, further chain) above
In test [9] the target is biotinylated hFcRn (human) (UniProt P55899). Nature of the test: SPR Biacore, pH 6.0. The source holds these as a separate data set.
Target sequence in this assay (P55899 24-297 limits assumed, form in doubt, chain 1 of 2): as the sequence (P55899 24-297 limits assumed, form in doubt, chain 1 of 2) above
Target sequence in this assay (P61769 21-119 limits assumed, form in doubt, chain 2 of 2, further chain): as the sequence (P61769 21-119 limits assumed, form in doubt, chain 2 of 2, further chain) above
For test [10] the target is unchanged. Nature of the test: SPR Biacore, pH 7.4. The source holds these as a separate data set.
Target sequence in this assay (P55899 24-297 limits assumed, form in doubt, chain 1 of 2): as the sequence (P55899 24-297 limits assumed, form in doubt, chain 1 of 2) above
Target sequence in this assay (P61769 21-119 limits assumed, form in doubt, chain 2 of 2, further chain): as the sequence (P61769 21-119 limits assumed, form in doubt, chain 2 of 2, further chain) above
The target in test [11] is Human CD16a (FcγRIIIa) V158 with C-terminal HPC4 tag (human) (UniProt P08637). Nature of the test: SPR Biacore FcγRIIIa.
Chain of Human CD16a (FcγRIIIa) V158 with C-terminal HPC4 tag (human) (P08637 17-208 F176V): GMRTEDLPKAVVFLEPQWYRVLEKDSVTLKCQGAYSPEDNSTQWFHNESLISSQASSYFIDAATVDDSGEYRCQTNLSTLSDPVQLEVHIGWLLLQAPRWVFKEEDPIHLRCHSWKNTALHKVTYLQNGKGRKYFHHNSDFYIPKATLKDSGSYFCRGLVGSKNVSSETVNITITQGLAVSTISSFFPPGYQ
Test [12] deals with rFcRn (rat) (UniProt P13599). Nature of the test: BLI Octet, pH 6.0, purified antibody.
Target sequence in this assay (P13599 23-298 limits assumed, form in doubt, chain 1 of 2): as the sequence (P13599 23-298 limits assumed, form in doubt, chain 1 of 2) above
Target sequence in this assay (P07151 21-119 limits assumed, form in doubt, chain 2 of 2, further chain): as the sequence (P07151 21-119 limits assumed, form in doubt, chain 2 of 2, further chain) above
Test [13] concerns the target biotinylated hFcRn (human) (UniProt P55899). Nature of the test: SPR Biacore, pH 7.4, 1000 nM antibody.
Target sequence in this assay (P55899 24-297 limits assumed, form in doubt, chain 1 of 2): as the sequence (P55899 24-297 limits assumed, form in doubt, chain 1 of 2) above
Target sequence in this assay (P61769 21-119 limits assumed, form in doubt, chain 2 of 2, further chain): as the sequence (P61769 21-119 limits assumed, form in doubt, chain 2 of 2, further chain) above
The target in test [14] is rFcRn (rat) (UniProt P13599). Nature of the test: SPR Biacore, pH 7.4, 1000 nM antibody.
Target sequence in this assay (P13599 23-298 limits assumed, form in doubt, chain 1 of 2): as the sequence (P13599 23-298 limits assumed, form in doubt, chain 1 of 2) above
Target sequence in this assay (P07151 21-119 limits assumed, form in doubt, chain 2 of 2, further chain): as the sequence (P07151 21-119 limits assumed, form in doubt, chain 2 of 2, further chain) above
Test [15] concerns the target rFcRn (rat) (UniProt P13599). Nature of the test: SPR Biacore, pH 6.0. This is another data set of the same source.
Target sequence in this assay (P13599 23-298 limits assumed, form in doubt, chain 1 of 2): as the sequence (P13599 23-298 limits assumed, form in doubt, chain 1 of 2) above
Target sequence in this assay (P07151 21-119 limits assumed, form in doubt, chain 2 of 2, further chain): as the sequence (P07151 21-119 limits assumed, form in doubt, chain 2 of 2, further chain) above
The target in test [16] is Human CD16a (FcγRIIIa) V158 with C-terminal HPC4 tag (human) (UniProt P08637). Nature of the test: SPR Biacore, captured FcγRIIIa-V158.
Test [17] has as its target biotinylated hFcRn (human) (UniProt P55899). Nature of the test: Biacore SPR, pH 6.0, bivalent fit.
Target sequence in this assay (P55899 24-297, form in doubt, chain 1 of 2): as the sequence (P55899 24-297 limits assumed, form in doubt, chain 1 of 2) above
Target sequence in this assay (P61769 21-119, form in doubt, chain 2 of 2, further chain): as the sequence (P61769 21-119 limits assumed, form in doubt, chain 2 of 2, further chain) above
The target in test [18] is rFcRn (rat) (UniProt P13599). Nature of the test: Biacore SPR, pH 6.0, bivalent fit.
Target sequence in this assay (P13599 23-298, form in doubt, chain 1 of 2): as the sequence (P13599 23-298 limits assumed, form in doubt, chain 1 of 2) above
Target sequence in this assay (P07151 21-119, form in doubt, chain 2 of 2, further chain): as the sequence (P07151 21-119 limits assumed, form in doubt, chain 2 of 2, further chain) above
The target of test [19] is biotinylated human FcRn (hFcRn; p51 subunit residues 24-297 with C-terminal Avi-tag, β2-m residues 21-119) (human) (UniProt P55899). Nature of the test: Biacore SPR, pH 6.0, apparent affinity.
Test [20] addresses Human CD16a (FcγRIIIa residues 17-208, C-terminal HPC4 tag, valine at position 158) (human) (UniProt P08637). Nature of the test: Biacore SPR, HPC4-captured FcγRIIIa-V158, pH 7.4.
Test [21] deals with biotinylated human FcRn (hFcRn; p51 subunit residues 24-297 with C-terminal Avi-tag, β2-m residues 21-119) (human) (UniProt P55899). Nature of the test: Biacore SPR, pH 7.4, steady state, 1000 nM antibody.
For test [22] the target is unchanged. Nature of the test: Biacore SPR; second ratio column (inverse of c7).
The target is the same in test [23]. Nature of the test: Biacore SPR; pH 6.0 affinity (M^-1) over pH 7.4 steady state RU.
The target of test [24] is biotinylated cynomolgus FcRn (cynomolgus) (UniProt Q8SPV9). Nature of the test: Biacore SPR, pH 6.0.
In test [25] the target is biotinylated hFcRn (human) (UniProt P55899). Nature of the test: Biacore SPR, pH 6.0.
Target sequence in this assay (P55899 24-297, form in doubt, chain 1 of 2): as the sequence (P55899 24-297 limits assumed, form in doubt, chain 1 of 2) above
Target sequence in this assay (P61769 21-119, form in doubt, chain 2 of 2, further chain): as the sequence (P61769 21-119 limits assumed, form in doubt, chain 2 of 2, further chain) above
The target of test [26] is mouse FcRn (mouse) (UniProt Q61559). Nature of the test: Biacore SPR, pH 6.0.
Chain of mouse FcRn (mouse) (Q61559 22-297, chain 1 of 2): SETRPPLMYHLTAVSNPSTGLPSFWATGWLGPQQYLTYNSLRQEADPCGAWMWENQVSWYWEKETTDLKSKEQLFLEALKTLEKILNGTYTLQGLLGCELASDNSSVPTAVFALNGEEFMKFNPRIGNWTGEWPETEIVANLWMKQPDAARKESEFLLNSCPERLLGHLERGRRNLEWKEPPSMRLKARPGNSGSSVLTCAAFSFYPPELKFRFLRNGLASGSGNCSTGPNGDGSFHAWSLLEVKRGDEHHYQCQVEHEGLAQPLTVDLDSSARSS
Chain of mouse FcRn (mouse) (P01887 21-119, chain 2 of 2, further chain): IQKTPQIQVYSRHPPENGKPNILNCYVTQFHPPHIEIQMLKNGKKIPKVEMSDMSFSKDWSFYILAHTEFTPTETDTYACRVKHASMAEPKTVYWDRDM
In test [27] the target is biotinylated cynomolgus FcRn (cynomolgus) (UniProt Q8SPV9). Nature of the test: Biacore SPR, pH 7.4, steady state.
Test [28] deals with biotinylated hFcRn (human) (UniProt P55899). Nature of the test: Biacore SPR, pH 7.4, steady state.
Target sequence in this assay (P55899 24-297, form in doubt, chain 1 of 2): as the sequence (P55899 24-297 limits assumed, form in doubt, chain 1 of 2) above
Target sequence in this assay (P61769 21-119, form in doubt, chain 2 of 2, further chain): as the sequence (P61769 21-119 limits assumed, form in doubt, chain 2 of 2, further chain) above
The target of test [29] is mouse FcRn (mouse) (UniProt Q61559). Nature of the test: Biacore SPR, pH 7.4, steady state.
The target in test [30] is Human CD16a (FcγRIIIa) V158 with C-terminal HPC4 tag (human) (UniProt P08637). Nature of the test: Biacore SPR, captured FcγRIIIa-V158, relative to WT of the same backbone.

Chain of Human CD16a (FcγRIIIa residues 17-208, C-terminal HPC4 tag, valine at position 158) (human) (P08637 17-208 F176V): as the sequence (P08637 17-208 F176V) above
Chain of biotinylated human FcRn (hFcRn; p51 subunit residues 24-297 with C-terminal Avi-tag, β2-m residues 21-119) (human) (P55899 24-297, form in doubt, chain 1 of 2): as the sequence (P55899 24-297 limits assumed, form in doubt, chain 1 of 2) above
Chain of biotinylated human FcRn (hFcRn; p51 subunit residues 24-297 with C-terminal Avi-tag, β2-m residues 21-119) (human) (P61769 21-119, form in doubt, chain 2 of 2, further chain): as the sequence (P61769 21-119 limits assumed, form in doubt, chain 2 of 2, further chain) above

“YTEKF benchmark (MST-HN variant; M252Y/S254T/T256E/H433K/N434F) (antibody)”: the Steady State RU (pH 7.4) in test [1] stood at 89.9 RU. Moreover, the Kd in test [2] and in test [3] was 14.8 nM throughout. The substance further yielded a pH 7.4 RU in test [4] of 89.9 RU.
Regarding mAb1 M252Y/S254T/T256E (antibody), the koff was 0.045 s⁻¹ in test [5], 0.00121 s⁻¹ in test [6] and 0.00066 s⁻¹ in test [12]. For the same substance, the Kd in test [6] stood at 18 nM; in [9] it was 342 nM. Further, the Steady State RU in [7] amounted to 13.2 RU; in [8], 53.9 RU; in test [10], 13.1 RU; in test [13], 13.2 RU; in test [14], 53.9 RU. In test [11], this substance gave a % reduction in binding response vs wild-type of 50%.
As for mAb1 M252Y/T256D (antibody), the Kd in [6] is 5.86 nM; in test [15] it was 5.9 nM. The Steady State RU in test [7] came out at 9.7 RU; in [8], 56 RU.
In the case of mAb1 M428L/N434S (antibody), the koff came out at 0.052 s⁻¹ in test [5], 0.00658 s⁻¹ in [6], 0.5 s⁻¹ in [9] and 0.00338 s⁻¹ in test [12]. For the same substance, the values for the kon in test [5], in test [6] and in test [9] were 193000 M⁻¹ s⁻¹, 90800 M⁻¹ s⁻¹ and 19000 M⁻¹ s⁻¹, respectively. Also, the Kd in [6] was found to be 74 nM; in test [9], 272 nM. Further, the Steady State RU in [7] stood at 18.3 RU; in test [8], 24.8 RU; in [10], 18.5 RU; in test [13] it was 18.3 RU; in test [14], 24.8 RU. In test [16], this substance returned a FcγRIIIa V158 Affinity Fold Change (relative to WT) of 1.04 fold.
mAb1 T256D/T307Q (antibody): the Kd in test [5] was determined as 232 nM; in [6], 9.54 nM; in [15], 9.5 nM. For the same substance, the results for the koff in test [5], in test [6] and in test [9] were 0.0872 s⁻¹, 0.00127 s⁻¹ and 0.87 s⁻¹, respectively. Moreover, the on-rate (kon) was 376000 M⁻¹ s⁻¹ in test [5], 133000 M⁻¹ s⁻¹ in [6] and 38000 M⁻¹ s⁻¹ in test [9]. Moreover, the Steady State RU in test [7] stood at 10.7 RU; in test [8], 39.1 RU. The same substance yielded a FcγRIIIa V158 Affinity Fold Change (relative to WT) in test [16] of 0.73 fold.
Regarding mAb1 T256D/T307W (antibody), the Kd in test [5] stood at 169 nM; in [6] it was 8.24 nM; in test [15], 8.2 nM. For the same substance, the koff in [5] is 0.0892 s⁻¹; in test [6] it was 0.00129 s⁻¹; in test [9], 0.89 s⁻¹. For the same substance, the kon in test [5] was determined as 529000 M⁻¹ s⁻¹; in [6] it was 157000 M⁻¹ s⁻¹; in test [9], 53000 M⁻¹ s⁻¹. The Steady State RU turned out to be 12.2 RU in test [7] and 42.1 RU in test [8]. The same substance registered a FcγRIIIa V158 Affinity Fold Change (relative to WT) in [16] of 0.89 fold.
Consider mAb1 T307A/E380A/N434A (antibody), for which the Kd was determined as 1780 nM in test [5] and 77 nM in test [6]. Also, the koff came to 0.144 s⁻¹ in test [5], 0.0117 s⁻¹ in [6] and 0.00377 s⁻¹ in [12]. The on-rate constant (kon) in test [5] turned out to be 83700 M⁻¹ s⁻¹; in [6], 157000 M⁻¹ s⁻¹. Besides, the values for the Steady State RU in test [10], in [13] and in [14] were 13.1 RU, 13.9 RU and 23.6 RU, respectively.
Regarding mAb1 T307E (antibody), the Kd in [5] is 8130 nM; in test [6] it was 141 nM; in test [17], 8130 nM; in [18] it was 141 nM. Moreover, the koff in test [5] amounted to 0.298 s⁻¹; in test [6] it was 0.00603 s⁻¹; in [17], 0.3 s⁻¹; in test [18], 0.006 s⁻¹; in [12], 0.00329 s⁻¹. In addition, the kon was 43700 M⁻¹ s⁻¹ in test [5], 55500 M⁻¹ s⁻¹ in test [6], 44000 M⁻¹ s⁻¹ in test [17] and 56000 M⁻¹ s⁻¹ in [18]. Also, the Steady State RU in test [13] was determined as 5.7 RU; in test [14] it was 21.5 RU.
Regarding “mAb1 YDQF variant (M252Y/T256D/T307Q/N434F) (antibody)”, the Ka in test [19] was 1.11e+08 M⁻¹. This substance came in with a Steady State RU (pH 7.4) in [1] of 91.7 RU. The substance further showed a FcγRIIIa Binding (RU) in test [20] of 93.2 RU. Also, the Steady State Binding, pH 7.4 (RU) in test [21] came to 68.6 RU. In addition, the pH 7.4 RU in [4] turned out to be 91.7 RU.
Regarding “mAb1 YDQY variant (M252Y/T256D/T307Q/N434Y) (antibody)”, in test [19], the Ka was determined as 2.35e+08 M⁻¹. Moreover, in [1], the Steady State RU (pH 7.4) was found to be 103 RU. Also, the Ratio (pH 7.4/pH 6.0) in test [22] was found to be 3.41e-07. Besides, the FcγRIIIa Binding (RU) in test [20] stood at 119 RU. The same substance gave a Steady State Binding, pH 7.4 (RU) in [21] of 80.2 RU. Besides, the Kd in test [2] and in test [3] was 2.7 nM in each case. Also, in test [23], the Ratio (pH 6.0/pH 7.4) is 2.93e+06. In addition, in [4], the pH 7.4 RU was found to be 103 RU.
Turning to “mAb1 YDWY variant (M252Y/T256D/T307W/N434Y) (antibody)”, the Ka in test [19] was 2.66e+08 M⁻¹. Further, the Steady State RU (pH 7.4) in test [1] was 91.2 RU. In addition, the Ratio (pH 6.0/pH 7.4) in [22] amounted to 3.33e-07; in test [23], 3.01e+06. In [20], this substance had a FcγRIIIa Binding (RU) of 104 RU. In test [21], this substance had a Steady State Binding, pH 7.4 (RU) of 88.5 RU. Moreover, the Kd in [2] and in [3] was 5.2 nM throughout. In [4], the pH 7.4 RU is 91.2 RU.
For the substance “mAb1 YEQY variant (M252Y/T256E/T307Q/N434Y) (antibody)”, the Steady State RU (pH 7.4) in [1] was 93.6 RU. The Kd in test [2] and in test [3] was 4.8 nM throughout. The substance further displayed a pH 7.4 RU in [4] of 93.6 RU.
Take mAb2 DQ (T256D/T307Q) (antibody): the Kd stood at 110 nM in test [24], 97 nM in [25] and 24 nM in [26]. Also, the Steady State RU (pH 7.4) in test [27] was found to be 11 RU; in test [28], 14 RU; in [29], 248 RU. In addition, the FcγRIIIa V158 Affinity Fold Change (fold relative to WT) in test [30] came to 1.05.
Regarding mAb2 DW (T256D/T307W) (antibody), the Kd is 99 nM in [24], 69 nM in [25] and 13 nM in test [26]. Moreover, the Steady State RU (pH 7.4) in [27] stood at 15 RU; in test [28], 18 RU; in [29] it was 257 RU. The FcγRIIIa V158 Affinity Fold Change (fold relative to WT) in [30] amounted to 1.15.
As for mAb2 LS (M428L/N434S) (antibody), the Kd in test [24] turned out to be 210 nM; in [25] it was 113 nM; in test [26], 20 nM. The Steady State RU (pH 7.4) in test [27] was determined as 38 RU; in test [28], 44 RU; in test [29] it was 285 RU. The FcγRIIIa V158 Affinity Fold Change (fold relative to WT) in [30] is 1.23.
With mAb2 YD (M252Y/T256D) (antibody), the Kd stood at 120 nM in test [24], 99 nM in test [25] and 10 nM in test [26]. The Steady State RU (pH 7.4) in test [27] was found to be 22 RU; in test [28], 27 RU; in test [29], 394 RU. Also, in test [30], the FcγRIIIa V158 Affinity Fold Change (fold relative to WT) is 0.58.
